# Columns and labels:
# [1] = tested on: COc1ccc2c(CC(=O)N[C@@H](CCCNC(=N)N)C(=O)N3CCC[C@@H]3C(=O)N[C@@H](CC(C)C)C(=O)NCC(=O)N[C@@H](CC(C)C)C(=O)N[C@H](CNc3ccc([N+](=O)[O-])cc3[N+](=O)[O-])C(=O)N[C@@H](C)C(=O)N[C@H](CCCNC(=N)N)C(=O)N[C@@H](CCC(=O)O)C(=O)N[C@H](CCCNC(=N)N)C(N)=O)cc(=O)oc2c1; experiment: Km and kcat/Km of substrates with MMP-3; type: biochemical; settings: other: substrate cleavage by MMP-3
# [2] = tested on: COc1ccc2c(CC(=O)N[C@@H](CCCNC(=N)N)C(=O)N3CCC[C@H]3C(=O)N[C@@H](CC(C)C)C(=O)NCC(=O)N[C@@H](CCCCOCc3ccccc3)C(=O)N[C@@H](CNc3ccc([N+](=O)[O-])cc3[N+](=O)[O-])C(=O)N[C@@H](C)C(=O)N[C@@H](CCCNC(=N)N)C(=O)N[C@@H](CCC(=O)O)C(=O)N[C@@H](CCCNC(=N)N)C(N)=O)cc(=O)oc2c1; experiment: Km and kcat/Km of substrates with MMP-3; type: biochemical; settings: other: substrate cleavage by MMP-3
# [3] = tested on: COc1ccc2c(CC(=O)N[C@H](CCCNC(=N)N)C(=O)N3CCC[C@H]3C(=O)N[C@@H](CC(C)C)C(=O)NCC(=O)N[C@@H](CCCCOCc3ccccc3)C(=O)N[C@@H](CNc3ccc([N+](=O)[O-])cc3[N+](=O)[O-])C(=O)N[C@@H](C)C(=O)N[C@H](CCCNC(=N)N)C(=O)N[C@H](CCC(=O)O)C(=O)N[C@H](CCCNC(=N)N)C(N)=O)cc(=O)oc2c1; experiment: Km and kcat/Km of substrates with MMP-3; type: biochemical; settings: other: substrate cleavage by MMP-3
# [4] = tested on: COc1ccc2c(CC(=O)N[C@@H](CCCNC(=N)N)C(=O)N3CCC[C@@H]3C(=O)N[C@@H](CC(C)C)C(=O)NCC(=O)N[C@@H](CC(C)C)C(=O)N[C@H](CNc3ccc([N+](=O)[O-])cc3[N+](=O)[O-])C(=O)N[C@@H](C)C(=O)N[C@H](CCCNC(=N)N)C(=O)N[C@@H](CCC(=O)O)C(=O)N[C@H](CCCNC(=N)N)C(N)=O)cc(=O)oc2c1; experiment: Km and kcat/Km of substrates with MMP-8; type: biochemical; settings: other: substrate cleavage by MMP-8
# [5] = tested on: COc1ccc2c(CC(=O)N[C@@H](CCCNC(=N)N)C(=O)N3CCC[C@H]3C(=O)N[C@@H](CC(C)C)C(=O)NCC(=O)N[C@@H](CCCCOCc3ccccc3)C(=O)N[C@@H](CNc3ccc([N+](=O)[O-])cc3[N+](=O)[O-])C(=O)N[C@@H](C)C(=O)N[C@@H](CCCNC(=N)N)C(=O)N[C@@H](CCC(=O)O)C(=O)N[C@@H](CCCNC(=N)N)C(N)=O)cc(=O)oc2c1; experiment: Km and kcat/Km of substrates with MMP-8; type: biochemical; settings: other: substrate cleavage by MMP-8
# [6] = tested on: COc1ccc2c(CC(=O)N[C@H](CCCNC(=N)N)C(=O)N3CCC[C@H]3C(=O)N[C@@H](CC(C)C)C(=O)NCC(=O)N[C@@H](CCCCOc3ccccc3)C(=O)N[C@@H](CNc3ccc([N+](=O)[O-])cc3[N+](=O)[O-])C(=O)N[C@@H](C)C(=O)N[C@H](CCCNC(=N)N)C(=O)N[C@H](CCC(=O)O)C(=O)N[C@H](CCCNC(=N)N)C(N)=O)cc(=O)oc2c1; experiment: Km and kcat/Km of substrates with MMP-8; type: biochemical; settings: other: substrate cleavage by MMP-8
# [7] = tested on: COc1ccc2c(CC(=O)N[C@H](CCCNC(=N)N)C(=O)N3CCC[C@H]3C(=O)N[C@@H](CC(C)C)C(=O)NCC(=O)N[C@@H](CCCCOCc3ccccc3)C(=O)N[C@@H](CNc3ccc([N+](=O)[O-])cc3[N+](=O)[O-])C(=O)N[C@@H](C)C(=O)N[C@H](CCCNC(=N)N)C(=O)N[C@H](CCC(=O)O)C(=O)N[C@H](CCCNC(=N)N)C(N)=O)cc(=O)oc2c1; experiment: Km and kcat/Km of substrates with MMP-8; type: biochemical; settings: other: substrate cleavage by MMP-8
# [8] = tested on: COc1ccc2c(CC(=O)N[C@@H](CCCNC(=N)N)C(=O)N3CCC[C@@H]3C(=O)N[C@@H](CC(C)C)C(=O)NCC(=O)N[C@@H](CC(C)C)C(=O)N[C@H](CNc3ccc([N+](=O)[O-])cc3[N+](=O)[O-])C(=O)N[C@@H](C)C(=O)N[C@H](CCCNC(=N)N)C(=O)N[C@@H](CCC(=O)O)C(=O)N[C@H](CCCNC(=N)N)C(N)=O)cc(=O)oc2c1; experiment: Km and kcat/Km of substrates with MMP-13; type: biochemical; settings: other: substrate cleavage by MMP-13
# [9] = tested on: COc1ccc2c(CC(=O)N[C@@H](CCCNC(=N)N)C(=O)N3CCC[C@H]3C(=O)N[C@@H](CC(C)C)C(=O)NCC(=O)N[C@@H](CCCCOCc3ccccc3)C(=O)N[C@@H](CNc3ccc([N+](=O)[O-])cc3[N+](=O)[O-])C(=O)N[C@@H](C)C(=O)N[C@@H](CCCNC(=N)N)C(=O)N[C@@H](CCC(=O)O)C(=O)N[C@@H](CCCNC(=N)N)C(N)=O)cc(=O)oc2c1; experiment: Km and kcat/Km of substrates with MMP-13; type: biochemical; settings: other: substrate cleavage by MMP-13
# [10] = tested on: COc1ccc2c(CC(=O)N[C@H](CCCNC(=N)N)C(=O)N3CCC[C@H]3C(=O)N[C@@H](CC(C)C)C(=O)NCC(=O)N[C@@H](CCCCOc3ccccc3)C(=O)N[C@@H](CNc3ccc([N+](=O)[O-])cc3[N+](=O)[O-])C(=O)N[C@@H](C)C(=O)N[C@H](CCCNC(=N)N)C(=O)N[C@H](CCC(=O)O)C(=O)N[C@H](CCCNC(=N)N)C(N)=O)cc(=O)oc2c1; experiment: Km and kcat/Km of substrates with MMP-13; type: biochemical; settings: other: substrate cleavage by MMP-13
# [11] = tested on: COc1ccc2c(CC(=O)N[C@H](CCCNC(=N)N)C(=O)N3CCC[C@H]3C(=O)N[C@@H](CC(C)C)C(=O)NCC(=O)N[C@@H](CCCCOCc3ccccc3)C(=O)N[C@@H](CNc3ccc([N+](=O)[O-])cc3[N+](=O)[O-])C(=O)N[C@@H](C)C(=O)N[C@H](CCCNC(=N)N)C(=O)N[C@H](CCC(=O)O)C(=O)N[C@H](CCCNC(=N)N)C(N)=O)cc(=O)oc2c1; experiment: Km and kcat/Km of substrates with MMP-13; type: biochemical; settings: other: substrate cleavage by MMP-13
# [12] = tested on: COc1ccc2c(CC(=O)N[C@@H](CCCNC(=N)N)C(=O)N3CCC[C@@H]3C(=O)N[C@@H](CC(C)C)C(=O)NCC(=O)N[C@@H](CC(C)C)C(=O)N[C@H](CNc3ccc([N+](=O)[O-])cc3[N+](=O)[O-])C(=O)N[C@@H](C)C(=O)N[C@H](CCCNC(=N)N)C(=O)N[C@@H](CCC(=O)O)C(=O)N[C@H](CCCNC(=N)N)C(N)=O)cc(=O)oc2c1; experiment: purified protein, by the assay type; settings: other: substrate cleavage by MMP-14
# [13] = tested on: COc1ccc2c(CC(=O)N[C@@H](CCCNC(=N)N)C(=O)N3CCC[C@H]3C(=O)N[C@@H](CC(C)C)C(=O)NCC(=O)N[C@@H](CCCCOCc3ccccc3)C(=O)N[C@@H](CNc3ccc([N+](=O)[O-])cc3[N+](=O)[O-])C(=O)N[C@@H](C)C(=O)N[C@@H](CCCNC(=N)N)C(=O)N[C@@H](CCC(=O)O)C(=O)N[C@@H](CCCNC(=N)N)C(N)=O)cc(=O)oc2c1; experiment: purified protein, by the assay type; settings: other: substrate cleavage by MMP-14
# [14] = tested on: COc1ccc2c(CC(=O)N[C@H](CCCNC(=N)N)C(=O)N3CCC[C@H]3C(=O)N[C@@H](CC(C)C)C(=O)NCC(=O)N[C@@H](CCCCOc3ccccc3)C(=O)N[C@@H](CNc3ccc([N+](=O)[O-])cc3[N+](=O)[O-])C(=O)N[C@@H](C)C(=O)N[C@H](CCCNC(=N)N)C(=O)N[C@H](CCC(=O)O)C(=O)N[C@H](CCCNC(=N)N)C(N)=O)cc(=O)oc2c1; experiment: purified protein, by the assay type; settings: other: substrate cleavage by MMP-14
# [15] = tested on: COc1ccc2c(CC(=O)N[C@H](CCCNC(=N)N)C(=O)N3CCC[C@H]3C(=O)N[C@@H](CC(C)C)C(=O)NCC(=O)N[C@@H](CCCCOCc3ccccc3)C(=O)N[C@@H](CNc3ccc([N+](=O)[O-])cc3[N+](=O)[O-])C(=O)N[C@@H](C)C(=O)N[C@H](CCCNC(=N)N)C(=O)N[C@H](CCC(=O)O)C(=O)N[C@H](CCCNC(=N)N)C(N)=O)cc(=O)oc2c1; experiment: purified protein, by the assay type; settings: other: substrate cleavage by MMP-14
# MMP-8 (Homo sapiens), sequence (chain, as listed by the source): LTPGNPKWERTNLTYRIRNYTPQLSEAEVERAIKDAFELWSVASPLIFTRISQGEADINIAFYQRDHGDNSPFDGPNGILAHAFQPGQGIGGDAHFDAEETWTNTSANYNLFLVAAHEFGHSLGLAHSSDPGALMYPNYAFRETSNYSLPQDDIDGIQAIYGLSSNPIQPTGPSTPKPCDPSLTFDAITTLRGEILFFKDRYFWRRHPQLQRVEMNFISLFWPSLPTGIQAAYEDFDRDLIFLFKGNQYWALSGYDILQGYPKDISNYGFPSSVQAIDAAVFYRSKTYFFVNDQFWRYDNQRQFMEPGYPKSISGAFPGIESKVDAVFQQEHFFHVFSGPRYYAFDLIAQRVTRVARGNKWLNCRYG
# MMP-3 (Homo sapiens), sequence (chain, as listed by the source): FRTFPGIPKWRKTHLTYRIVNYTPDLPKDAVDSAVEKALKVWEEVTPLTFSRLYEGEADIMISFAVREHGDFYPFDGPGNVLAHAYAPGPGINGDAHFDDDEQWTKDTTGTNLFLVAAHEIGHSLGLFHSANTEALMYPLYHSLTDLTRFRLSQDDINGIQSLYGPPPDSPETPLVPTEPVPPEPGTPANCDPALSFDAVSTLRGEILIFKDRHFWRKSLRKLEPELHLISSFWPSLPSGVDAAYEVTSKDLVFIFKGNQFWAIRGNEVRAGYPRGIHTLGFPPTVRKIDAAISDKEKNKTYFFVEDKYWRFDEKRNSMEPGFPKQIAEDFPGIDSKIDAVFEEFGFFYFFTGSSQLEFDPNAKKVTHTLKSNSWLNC
substance,measurement,setting,value
MMP-3 (Homo sapiens),Km,[1],14 µM
same,kcat/Km,[1],0.63 M^−1s^−1×10^4
same,Km,[2],85.9 µM
same,kcat/Km,[2],0.48 M^−1s^−1×10^4
same,Km,[3],28.9 µM
same,kcat/Km,[3],0.16 M^−1s^−1×10^4
MMP-8 (Homo sapiens),Km,[4],16.7 µM
same,kcat/Km,[4],13.9 M^−1s^−1×10^4
same,Km,[5],9.1 µM
same,kcat/Km,[5],17.9 M^−1s^−1×10^4
same,Km,[6],4.4 µM
same,kcat/Km,[6],52.2 M^−1s^−1×10^4
same,Km,[7],3.3 µM
same,kcat/Km,[7],14.6 M^−1s^−1×10^4
MMP-13 (Homo sapiens),Km,[8],9 µM
same,kcat/Km,[8],29.6 M^−1s^−1×10^4
same,Km,[9],0.9 µM
same,kcat/Km,[9],424 M^−1s^−1×10^4
same,Km,[10],1.2 µM
same,kcat/Km,[10],293 M^−1s^−1×10^4
same,Km,[11],1.5 µM
same,kcat/Km,[11],158 M^−1s^−1×10^4
MMP-14 (Homo sapiens),Km,[12],27.2 µM
same,kcat/Km,[12],4.1 M^−1s^−1×10^4
same,Km,[13],12 µM
same,kcat/Km,[13],8.3 M^−1s^−1×10^4
same,Km,[14],7.4 µM
same,kcat/Km,[14],15.5 M^−1s^−1×10^4
same,Km,[15],23.7 µM
same,kcat/Km,[15],5.09 M^−1s^−1×10^4

# From US20040018561A1, “Peptide compounds and their use as protease substrates” (priority 2002, published 2004)
